Measurements as given in the DeepSol protein solubility set.

assay: soluble on expression in E. coli; label from the status in PepcDB or PDB records

Sequence	soluble on expression in E. coli
MMKRNLIGAFIAASTLLSSSVAFSQDKPAYETGMIPADHIMVPDGDIQASIFLISDANGWTEADETRAKALVEKGAAVVGIDFKEYLKALEADDDECIYMISDIESLSQQIQRTAGTGSYRLPIVTGIGKGGTLALAMIAQSPVSTVREAVAVDPKAGLPLEKILCTPATKDKVDGETVYGLTDGALPAPVSVIFTPDADQKGRDHVNALVKLHSDIEVTDVTDKADEVLTQTLSDKVDAAGDSGNPLGLPITVLEAKPVMDTMAVIYSGDGGWRDLDEEVGSALQKQGVPVIGVDALRYFWKEKDPKEVAGDLARIIDTYRKEWKVKNVVLIGYSFGADIIPATYNLLPDRVKSSVAQLSLLGLSNEVDFEISVQGWLGVAGEGKGGKTVDDIAKIDPKLVQCVYGTEEEDEDPCPGLKAKGVETIGIEGGHHFDEDYEALAKRIVTSLKTRLAKLEHHHHHH	soluble
MMNDSFCRIIAGEIQARPEQVDAAVRLLDEGNTVPFIARYRKEITGGLDDTQLRNLETRLSYLRELEERRQAILKSISEQGKLTDDLAKAINATLSKTELEDLYLPYKPKRRTRGQIAIEAGLEPLADLLWSDPSHTPEVAAAQYVYADKGVADTKAALDGARYILMERFAEDAALLAKVRDYLWKNAHLVSTVVSGKEEEGAKFRDYFDHHEPLSTVPSHRALAMFRGRNEGVLQLSLNADPQFDEPPKESYCEQIIMDHLGLRLNNAPADSWRKGVVSWTWRIKVLMHLETELMGTVRERAEDEAINVFARNLHDLLMAAPAGLRATMGLDPGLRTGVKVAVVDATGKLVATDTIYPHTGQAAKAAMTVAALCEKHNVELVAIGNGTASRETERFYLDVQKQFPKVTAQKVIVSEAGASVYSASELAAQEFPDLDVSLRGAVSIARRLQDPLAELVKIDPKSIGVGQYQHDVSQTQLARKLDAVVEDCVNAVGVDLNTASVPLLTRVAGLTRMMAQNIVAWRDENGQFQNRQQLLKVSRLGPKAFEQCAGFLRINHGDNPLDASTVHPEAYPVVERILAATQQALKDLMGNSSELRNLKASDFTDEKFGVPTVTDIIKELEKPGRDPRPEFKTAQFADGVETMNDLQPGMILEGAVTNVTNFGAFVDIGVHQDGLVHISSLSNKFVEDPHTVVKAGDIVKVKVLEVDLQRKRIALTMRLDEQPGETNARRGGGNERPQNNRPAAKPRGREAQPAGNSAMMDALAAAMGKKR	soluble
MMPSQITRSSHSSLPEVAPASGDATGVSEQTPQQARTVAFFSSGELAVAFGRTSAAPEQDSVRLLSALQRELDKQHPSWHTVAQLCQSLAEVGTTEQGWHQLASEDQLPALRELLDRCTHRLADMPAAHASHDSLSQACEGLRTARLHQSVARLTARPSSLARAMADLLTLTHLDPETLGAEPPVISSYTLFSHFVRTAKQRTADLNDSLQRQPDAVVSLLRSHADTLNDLEMLPGALQALTENCQDAPARNELRELAEVAGALLQLLLEHDLLPRLEEISIEPGEA	not soluble
MMQISSNGITRLKREEGERLKAYSDSRGIPTIGVGHTGKVDGNSVASGMTITAEKSSELLKEDLQWVEDAISSLVRVPLNQNQYDAMCSLIFNIGKSAFAGSTVLRQLNLKNYQAAADAFLLWKKAGKDPDILLPRRRRERALFLS	soluble
MMRCPECSTEGWRVLPLTVGAHVKEGLWSKIKGDFYFCSLESCEVVYFNEQTVFRKGELKTRVGVKEREEPKPVCYCNRVTEKMLLEAAEKFGKEKAVEITGAGKGKWCVVTNPSGRCCHWHLERLGFPV	soluble
MMSKIFDLVVIGAGSGGLEAAWNAATLYKKRVAVIDVQMVHGPPFFSALGGTCVNVGCVPKKLMVTGAQYMEHLRESAGFGWEFDRTTLRAEWKNLIAVKDEAVLNINKSYDEMFRDTEGLEFFLGWGSLESKNVVNVRESADPASAVKERLETEHILLASGSWPHMPNIPGIEHCISSNEAFYLPEPPRRVLTVGGGFISVEFAGIFNAYKPKDGQVTLCYRGEMILRGFDHTLREELTKQLTANGIQILTKENPAKVELNADGSKSVTFESGKKMDFDLVMMAIGRSPRTKDLQLQNAGVMIKNGGVQVDEYSRTNVSNIYAIGDVTNRVMLTPVAINEAAALVDTVFGTTPRKTDHTRVASAVFSIPPIGTCGLIEEVASKRYEVVAVYLSSFTPLMHKVSGSKYKTFVAKIITNHSDGTVLGVHLLGDNAPEIIQGIGICLKLNAKISDFYNTIGVHPTSAEELCSMRTPSYYYVKGEKMEKPSEASL	soluble
MMSYALVLAGNRLITSGALGTNAAAIRGAMRADPNLLTVILPQSLERQPRESRQQLDKVMHLVEKPENDHLPLAEASSLCNQEIIARCQQLICFAFHDSHTLLQTCELAEEQHKVVTLFYFDLEHHHHHH	not soluble
MMTDKLNLNVLDAAFYSLEQTVVQISDRNWFDMQPSIVQDTLIAGAIQKFEFVYELSLKMMKRQLQQDAINTDDIGAYGFKDILREALRFGLIGDMSKWVAYRDMRNITSHTYDQEKAMAVYAQIDDFLIESSFLLEQLRQRNQYD	soluble
MNAEIASEIVAEIPLWSQELPDTQEIIASLISSNLFPLIYTEQDYLEIANASAGLYISDIIHCLTDIRKNHDLGNSSEIAKLLLAKKIQLLNRLYDIEFLPPPKVQLGGLELMQQSFKKFKRLLTPRAKQYNLRVPKGIMLEHHHHHH	not soluble
MNALPPAIFLMGPTAAGKTDLAIELSKVLPCELISVDSALVYRGMDIGTAKPSKAQLAEFPHRLIDILDPAQSYSAADFRSDALAAMAQITARGNIPLLVGGTMLYFKALLDGLADMPAANAAVRAQLEADAQAFGWQSLHDQLAVVDPVSAARIHPNDPQRLIRALEVYRVSGMSMTAHREQQTAQSTEAAASGCQQLPYTVANLAIAPADRKVLHQRIALRFEQMLDQGFLDEVLALRSRGDLHAGLPSIRAVGYRQVWDHLDGKLTREEMQERGIIATRQLAKRQFTWLRSWDDLHWLDSLASDNLSRALKYLGSVSILSLEHHHHHH	not soluble
MNANLPPSAISELHGPRLLLRAWRDSDREAFAEMCADPQVMEFFPSVLDRAQSDALVDRVQAHFAERGYGPWALELPGEAAFIGFTGLFDVTMDVHFAPTVEIGWRLAPAYWGRGLAREAAETALDFAFERLRLPEVVAFTTPPNRRSWGLMERLGMRRDPAEDFDHPLLAADHPMRRHILYRVDAARWAER	not soluble
MNDPLDSLSNDEFEIIETFDPETEDREDQWSIQQSIRIEPISIQMPNTLQSQRAPSPVGSKAPESLKDEDPDRTPEASIVETPLLTETLKEDRTPMSTPLASLVNSSQSPEFTLQNMSIVSESECSNNSSLVNVADVESTEIALRTSLLLVSELKSQLQAAKMSESTLLKSNSNHEIEENKKLSEKMEVMKNEFELKMQESAASVEKVIQEKDSAIEQLKVQLAQSQQVAELWKQGAEKNSNAQYSDSKTTIDRLLEENSKLRNLVDEEVARRLEESERRKLAEDQLKHARGGSVFDPPASFVASQLAERTTYSLNLEHELITLRKELEETKEALKKSVEESSNKDEIVSALHEDQQESTRMLASNEQVINSLKQKCRQLGVLEDFSS	soluble
MNEADYLRLLTRQAEQANDFLSNARKWDRERWVCQRFLEALNVPYRQEDFAAPGEQPPDVLFKGAGFEVFFVLDEGRRLNEEWREELTRRRQAVSLRQLIRREERPQRIAAAELQARLAPTLRKKAHNYSERGIDHGELDLLAFVNLKRAVPDFNTPFPPPTEYLRQGWRSLSMVGPTFARVLFAHSGAPEFLRANLGRSILFDAGVGL	soluble
MNEALSSGKVKNGEFLTVYLKEKLPDRLHYSQSYRIPPIIGMVGEGLIVRQNRTNAQECYGDHGYDNKFFSMRTIFVGHGSRFRRGKKVPSFENVQIYSVVADILGLRPAPNNGSSLFPRSILLPFRATRGLE	not soluble
MNEDIDMLIIANDLKQRGRKSIISGKFIFINMANEYEYVVYPVNENKTLSVKELEEFVDFSNRIKKKGVIAIVDKYGDVTYYLLSEINLGKK	soluble
MNEIHQPLARRVWRSNVDEEMARMAECLKRFPLIAFDTEYPGIIFRTYFDSSSDECYRAMKGNVENTKLIQCGFTLFNAKGEIGGVWEINFSNFGDPSDTRNELSIEFLRRHGLDLQKIRDEGVDMFGYGFFPKLMTVFRSQKHVEFVTFQGAYDFAYFLSILNHGKLPETHGEFATEVVKVFGQVYDTKVMAGFCEGLGEHLGLSKLAQLLQITRVGRAHHAGSDSLMTALVFIKLKHVYEDSRFARGLIYGIGKSNLVAAPAPAPVPEPTLPLMCQQNVASYPVFHNGYVQNYEQPQLVSYDPSGAPWAFCNATGTYVQLTHLPASTFAYPSQTPSATVDYLGPVPNYYNNNACYVVE	soluble
